Measurements taken from paper PMC11437284.

What was measured:
Test in all cases: SPR
cat Fcμ–J complex (cat) = molecular target: cat Fcμ–J complex (cat)
[1] = molecular target: D1 domain of FcμR (FcμR-D1) (human) (UniProt O60667)
[2] = molecular target: human Fcμ–J–CD5L complex (human) (UniProt P01871)
[3] = molecular target: human Fcμ–J complex (pentameric IgM core: IgM-Fc pentamer and the J chain) (human) (UniProt P01871)

Molecule: cat CD5L (3-SRCR isoform) (from UniProt A0A1E1GEY0 20-355) (natural protein)
- Kd (cat Fcμ–J complex (cat)): 14.4 nM

Molecule: human Fcμ–J–CD5L complex (from UniProt P01871 106-433; P01591 23-159; O43866 20-347)
- Kd [1]: 0.4 nM

B1: D1 domain of FcμR (FcμR-D1) (domain or fragment)
chain: RILPEVKVEGELGGSVTIKCPLPEMHVRIYLCREMAGSGTCGTVVSTTNFIKAEYKGRVTLKQYPRKNLFLVEVTQLTESDSGVYACGAGMNTDRGKTQKVTLNVHS
- Kd [2]: 8.8 nM

B2: human CD5L (CD5 antigen-like), wild type (natural protein)
chain: SPSGVRLVGGLHRCEGRVEVEQKGQWGTVCDDGWDIKDVAVLCRELGCGAASGTPSGILYEPPAEKEQKVLIQSVSCTGTEDTLAQCEQEEVYDCSHDEDAGASCENPESSFSPVPEGVRLADGPGHCKGRVEVKHQNQWYTVCQTGWSLRAAKVVCRQLGCGRAVLTQKRCNKHAYGRKPIWLSQMSCSGREATLQDCPSGPWGKNTCNHDEDTWVECEDPFDLRLVGGDNLCSGRLEVLHKGVWGSVCDDNWGEKEDQVVCKQLGCGKSLSPSFRDRKCYGPGVGRIWLDNVRCSGEEQSLEQCQHRFWGFHDCTHQEDVAVICSG
- Kd [3]: 18.1 nM

B3: human CD5L C191S (natural protein)
chain: SPSGVRLVGGLHRCEGRVEVEQKGQWGTVCDDGWDIKDVAVLCRELGCGAASGTPSGILYEPPAEKEQKVLIQSVSCTGTEDTLAQCEQEEVYDCSHDEDAGASCENPESSFSPVPEGVRLADGPGHCKGRVEVKHQNQWYTVCQTGWSLRAAKVVCRQLGCGRAVLTQKRSNKHAYGRKPIWLSQMSCSGREATLQDCPSGPWGKNTCNHDEDTWVECEDPFDLRLVGGDNLCSGRLEVLHKGVWGSVCDDNWGEKEDQVVCKQLGCGKSLSPSFRDRKCYGPGVGRIWLDNVRCSGEEQSLEQCQHRFWGFHDCTHQEDVAVICSG
- Kd [3]: 13.2 nM
